B1: MLL5 (parent)
chain: DCMGIDRQHIPDTYLCERCQPRNL
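Also: lentivirally expressed fusions sorted by FACS into six bins by GFP to DsRed ratio, PSI derived from sequencing read proportions per bin multiplied by bin number.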

Variants of B1 are the subject of the data set. The data set can be described thus: protein stability index of a GFP-peptide fusion (GPS, HEK-293T) (PSI 1-6); higher = more stable. The conditions noted are these: c terminus: a fixed tail appended.
For DCMGIDRQHIPDTYLCERCQPPNL [R22P], the protein stability index is 3.34.
As for DCMGIDRQHIPDTYLCERCQPWNL [R22W], the protein stability index stood at 1.99.
With DCMGIDRQHIPDTYLCERCQPHNL [R22H] the figure was 2.72; with DCMGIDRQHIPDTYLCERCQPNNL [R22N], 2.94; with DCMGIDRQHIPDTYLCERCQPKNL [R22K], 3.19.
In the case of DCMGIDRQHIPDTYLCERCQPENL [R22E] it was 3.98; in that of DCMGIDRQHIPDTYLCERCQPSNL [R22S], 3.31; in that of DCMGIDRQHIPDTYLCERCQPANL [R22A], 3.57.
In the case of DCMGIDRQHIPDTYLCERSQPRNL [C19S] it was 3.85; in that of DCMGIDRQHIPDTYLCERAQPRNL [C19A], 4.26.
Regarding DCMGIDRQHIPDTYLCERDQPRNL [C19D], the protein stability index stood at 4.73.
As for DCMGIDRQHIPDTYLCERQQPRNL [C19Q], the protein stability index was 3.88.
In the case of DCMGIDRQHIPDTYLCERWQPRNL [C19W] it was 2.63; in that of DCMGIDRQHIPDTYLCERMQPRNL [C19M], 1.98; in that of DCMGIDRQHIPDTYLCEREQPRNL [C19E], 4.12.
With DCMGIDRQHIPDTYLCEKCQPRNL [R18K], the protein stability index stood at 2.63.
In the case of DCMGIDRQHIPDTYLCEICQPRNL [R18I] it was 2.9.
On to DCMGIDRQHIPDTYLCEFCQPRNL [R18F], for which the protein stability index turned out to be 2.87.
For DCMGIDRQHIPDTYLCEYCQPRNL [R18Y], the protein stability index was determined as 2.23.
For the variant DCMGIDRQHIPDTYLCEPCQPRNL [R18P], the protein stability index was found to be 3.15.
On to DCMGIDRQHIPDTYLCELCQPRNL [R18L], for which the protein stability index worked out at 2.84.
With DCMGIDRQHIPDTYLCEMCQPRNL [R18M] the figure was 2.74.
In the case of DCMGIDRQHIPDTYLCEACQPRNL [R18A] it was 2.57; in that of DCMGIDRQHIFDTYLCERCQPRNL [P11F], 2.59.
For the variant DCMGIDRQHIKDTYLCERCQPRNL [P11K], the protein stability index was determined as 2.62.
With DCMGIDRQHIMDTYLCERCQPRNL [P11M] the figure was 2.82.
As to DCMGIDRQHIYDTYLCERCQPRNL [P11Y], the protein stability index was determined as 2.44.
In the case of DCMGIDRQHIEDTYLCERCQPRNL [P11E], the protein stability index is 3.43.
With DCMGIDRQHIDDTYLCERCQPRNL [P11D] the figure was 2.61.
With DCMGIDRQHIVDTYLCERCQPRNL [P11V] the figure was 2.73; with DCMGIDRQHINDTYLCERCQPRNL [P11N], 4.19; with DCMGIDRQHITDTYLCERCQPRNL [P11T], 3.08.
With DCMGIDRQHIQDTYLCERCQPRNL [P11Q] the figure was 2.69.
On to DCMGIDRQHIPDTYLCERCCPRNL [Q20C], for which the protein stability index worked out at 2.69.
As for DCMGIDRQHIPDTYLCERCTPRNL [Q20T], the protein stability index was 3.53.
With DCMGIDRQHIPDTYLCERCDPRNL [Q20D] the figure was 4.22.
With DCMGIDRQHIPDTYLCERCIPRNL [Q20I] the figure was 2.55; with DCMGIDRQHIPDTYLCERCEPRNL [Q20E], 3.21.
In the case of DCMGIDRQHIPDTYLCERCWPRNL [Q20W] it was 2.27.
On to DCMGIDRQHIPDTYLCERCLPRNL [Q20L], for which the protein stability index came to 1.99.
Take DCMSIDRQHIPDTYLCERCQPRNL [G4S]: the protein stability index came out at 3.45.
With DCMPIDRQHIPDTYLCERCQPRNL [G4P] the figure was 2.55; with DCMFIDRQHIPDTYLCERCQPRNL [G4F], 2.37.
In the case of DCMAIDRQHIPDTYLCERCQPRNL [G4A] it was 2.23; in that of DCMRIDRQHIPDTYLCERCQPRNL [G4R], 2.48.
With DCMMIDRQHIPDTYLCERCQPRNL [G4M] the figure was 2.88; with DCMQIDRQHIPDTYLCERCQPRNL [G4Q], 2.88; with DCMGIDRQHIPDPYLCERCQPRNL [T13P], 3.33.
For DCMGIDRQHIPDWYLCERCQPRNL [T13W], the protein stability index was 2.7.
As to DCMGIDRQHIPDRYLCERCQPRNL [T13R], the protein stability index came to 3.63.
In the case of DCMGIDRQHIPDLYLCERCQPRNL [T13L] it was 2.04.
With DCMGIDRQHIPDMYLCERCQPRNL [T13M] the figure was 2.89; with DCMGIDRQHIPDCYLCERCQPRNL [T13C], 2.17; with DCMGIDRQHIPDIYLCERCQPRNL [T13I], 2.26.
With DCMGIDRQHIPDVYLCERCQPRNL [T13V] the figure was 3.34; with DCMGIDRQHIPDNYLCERCQPRNL [T13N], 2.91; with DCMGIDRQHIPDTGLCERCQPRNL [Y14G], 3.35.
As to DCMGIDRQHIPDTRLCERCQPRNL [Y14R], the protein stability index is 3.88.
With DCMGIDRQHIPDTHLCERCQPRNL [Y14H] the figure was 4.12; with DCMGIDRQHIPDTLLCERCQPRNL [Y14L], 2.56.
In the case of DCMGIDRQHIPDTSLCERCQPRNL [Y14S] it was 3.32.
In the case of DCMGIDRQHIPDTILCERCQPRNL [Y14I] it was 3.21; in that of DCMGIDRQHIPDTCLCERCQPRNL [Y14C], 4.74; in that of DCMGIDRQHIPDTVLCERCQPRNL [Y14V], 3.43.
For the variant DCMGIDRQHIPDTKLCERCQPRNL [Y14K], the protein stability index was determined as 3.11.
DCMGITRQHIPDTYLCERCQPRNL [D6T]: the protein stability index was found to be 2.02.
In the case of DCMGIFRQHIPDTYLCERCQPRNL [D6F] it was 1.74; in that of DCMGIKRQHIPDTYLCERCQPRNL [D6K], 2.59; in that of DCMGIVRQHIPDTYLCERCQPRNL [D6V], 2.4.
With DCMGIRRQHIPDTYLCERCQPRNL [D6R] the figure was 2.74; with DCMGIYRQHIPDTYLCERCQPRNL [D6Y], 2.47; with DCMGIHRQHIPDTYLCERCQPRNL [D6H], 3.19.
On to DCMGIDRQHIPDTYLCERCQPREL [N23E], for which the protein stability index was determined as 2.86.
Regarding DCMGIDRQHIPDTYLCERCQPRML [N23M], the protein stability index came to 2.83.
With DCMGIDRQHIPDTYLCERCQPRPL [N23P] the figure was 3.1; with DCMGIDRQHIPDTYLCERCQPRAL [N23A], 2.09; with DCMGIDRQHIPDTYLCERCQPRDL [N23D], 3.08.
With DCMGIDRQHIPDTYLCERCQPRFL [N23F] the figure was 2.58; with DCMGIDRQWIPDTYLCERCQPRNL [H9W], 2.23; with DCMGIDRQRIPDTYLCERCQPRNL [H9R], 2.64.
Consider DCMGIDRQLIPDTYLCERCQPRNL [H9L], for which the protein stability index came to 2.93.
With DCMGIDRQGIPDTYLCERCQPRNL [H9G] the figure was 2.77; with DCMGIDRQSIPDTYLCERCQPRNL [H9S], 2.98.
With DCMGIDRQVIPDTYLCERCQPRNL [H9V], the protein stability index came to 2.63.
In the case of DCMGIDRQIIPDTYLCERCQPRNL [H9I] it was 2.24.
In the case of DCMGIDRQTIPDTYLCERCQPRNL [H9T] it was 3.11.
In the case of DCMGIDRQHIPDTYLCERCQPRNT [L24T], the protein stability index worked out at 3.14.
With DCMGIDRQHIPDTYLCERCQPRNE [L24E] the figure was 3.44; with DCMGIDRQHIPDTYLCERCQPRNC [L24C], 3.24; with DCMGIDRQHIPDTYLCERCQPRNW [L24W], 2.77.
In the case of DCMGIDRQHIPDTYLCERCQPRNS [L24S] it was 3.84.
With DCMGIDRQHIPDTYLCERCQPRNQ [L24Q] the figure was 3.51; with DCMGIDRQHIPDTYLCERCQPRNY [L24Y], 2.86.
For DCMGIDRQHIPDTYLCERCQPRNN [L24N], the protein stability index was 3.26.

Values taken from the supplement of paper PMC10567573.
